Experimental findings from paper PMC12527216 are described below.

In test [1] the target is recombinant soluble CD4 engineered with a deletion in the transmembrane region but retaining the cytoplasmic tail (UniProt P01730). The test is described as follows: ELISA; as a1, but HIVBaL treated beforehand with acidified media at pH 3.8 (HCl adjusted) for 60 min at 37°C.
Test [2] has the same target. Put plainly: ELISA; as a1, but HIVBaL treated beforehand with 1% (w/w) (110 mM) L-lactic acid at pH 3.8 for 60 min at 37°C.

For the substance “virion-associated trimeric gp120 envelope glycoprotein of HIV-1 BaL (on HIVBaL virions) (natural protein)”, the fold reduction in rCD4 binding relative to untreated HIV-1 in test [1] and in test [2] was 2 fold in each case.
